Source: PMC3991583 (Nature, 2014)
Read-outs that look alike come from different tables or passages of the source.

What was measured:
Assay in all cases: crystal structure
[1] = molecular target: T1, AddA subunit of the nuclease-dead AddAB mutant (AddA D1172A) (UniProt P23478 1-1232, D1172A)
T1 sequence: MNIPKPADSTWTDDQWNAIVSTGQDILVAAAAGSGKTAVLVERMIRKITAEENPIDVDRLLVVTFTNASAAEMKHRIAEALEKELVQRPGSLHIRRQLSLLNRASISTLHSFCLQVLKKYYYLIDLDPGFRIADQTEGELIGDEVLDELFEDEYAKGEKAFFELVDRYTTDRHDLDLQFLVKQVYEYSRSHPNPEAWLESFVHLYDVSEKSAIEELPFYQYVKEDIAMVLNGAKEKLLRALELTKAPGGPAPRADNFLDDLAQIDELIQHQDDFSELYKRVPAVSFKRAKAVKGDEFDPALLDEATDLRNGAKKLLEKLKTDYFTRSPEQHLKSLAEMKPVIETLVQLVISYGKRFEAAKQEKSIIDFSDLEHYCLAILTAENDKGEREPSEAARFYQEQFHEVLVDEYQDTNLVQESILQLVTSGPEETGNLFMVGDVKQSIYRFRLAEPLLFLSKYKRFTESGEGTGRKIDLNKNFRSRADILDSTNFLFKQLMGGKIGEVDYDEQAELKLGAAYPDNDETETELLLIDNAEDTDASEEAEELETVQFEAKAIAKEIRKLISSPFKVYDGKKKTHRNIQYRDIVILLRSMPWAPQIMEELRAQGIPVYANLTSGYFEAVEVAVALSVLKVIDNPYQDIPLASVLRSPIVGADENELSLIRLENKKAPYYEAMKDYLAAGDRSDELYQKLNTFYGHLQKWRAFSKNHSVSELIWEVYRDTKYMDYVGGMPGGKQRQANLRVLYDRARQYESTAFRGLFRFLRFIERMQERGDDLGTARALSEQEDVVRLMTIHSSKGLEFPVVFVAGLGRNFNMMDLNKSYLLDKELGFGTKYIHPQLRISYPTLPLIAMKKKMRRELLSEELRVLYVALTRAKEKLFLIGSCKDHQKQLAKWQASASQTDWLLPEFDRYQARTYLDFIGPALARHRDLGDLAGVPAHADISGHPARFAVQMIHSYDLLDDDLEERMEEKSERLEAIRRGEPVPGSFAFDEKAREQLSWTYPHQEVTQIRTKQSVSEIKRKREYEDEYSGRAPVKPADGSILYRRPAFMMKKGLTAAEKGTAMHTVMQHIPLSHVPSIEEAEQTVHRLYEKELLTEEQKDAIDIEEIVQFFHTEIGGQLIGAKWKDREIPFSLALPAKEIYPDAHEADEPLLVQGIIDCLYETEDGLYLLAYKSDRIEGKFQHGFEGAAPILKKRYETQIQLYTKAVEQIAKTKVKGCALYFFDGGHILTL

[2] = molecular target: T2, AddA (nuclease-dead);AddB (nuclease-dead) (Bacillus subtilis?;Bacillus subtilis?, UniProt P23478;P23477 1-1232;1-1166, D1172A|D961A)
[3] = molecular target: T2, AddA (nuclease-dead);AddB …; remark: listed apart in the source

B1: AddB subunit of the nuclease-dead AddAB mutant (AddB D961A) (enzyme)
chain: MGAEFLVGRSGSGKTKLIINSIQDELRRAPFGKPIIFLVPDQMTFLMEYELAKTPDMGGMIRAQVFSFSRLAWRVLQHTGGMSRPFLTSTGVQMLLRKLIEEHKQEFKVYQKASDKSGFTAQVERMLTEFKRYCLEPEDIRRMAESGTASEYRGERVLSEKLHDLSILYQQMEKSLADQYLHSEDYLTLLAEHIPLAEDIKGAHIYVDGFYQFTPQEFRVLEQLMVHAEHITFSLTADKPSYEREPHELELFRMTGKTYYRLHQKAKELNLDITYKELSGTERHTKTPELAHLEAQYEARPAIPYAEKQEALTVMQAANRRAELEGIAREIHALVREKGYRYKDVAILARQPEDYKDMVKEVFADYEIPYFIDGKASMLNHPLIEFIRSSLDVLKGNWRYEAVFRCVKTELLFPLNEPKAKVREQVDQLENYCIAYGIKGDRWTKGDRFQYRRFVSLDDDFAQTDQEIEMENMLNDTRDWIVPPLFQLQKRMKKAKTVQEKAEALYRYLEETDVPLKLDQERQRAEDDGRIIEAQQHQQAWDAVIQLLEEFVEMMGDDEISLDLFQQMIEAGAESLTFSLIPPALDQVFVGNMDLSRMYGTSCTFVLGANDGVLPARPDENGVLSDDDREWLKTIGVELSSGGRERLLDEHFLIYMAFSSPSDRLYVSYPIADAEGKTLLPSMIVKRLEELFPHHKERLLTNEPEQVSDEEQLMYVVNKSVAQSFTASQLRLWTREYDISDVWWSTYNVLMSEQDRLQSKKLFSSLFFRNEVKQLERSVSRQLYGERIQGSVSRMETFNACPFSHFASHGLHLKERQFFKLEAPDIGQLFHSSLKLISDRLREQKLDWRDLTKEQCELFSYDAVERLAPKLQKEILLSSNRHYYVKEKLQKIVTRVSGILSEHAKASGFVPIGLELGFGGKGPLPPLTFQLKNGCTMELVGRIDRVDKAESSKGLLLRIVAYKSSDKGLDLAEVYYGLALQMLTYLDLSITHSADWLGMRATPAGVLYFHIHDPMIQSNLPLGLDEIEQEIFKKFKMKGLLLGDQEVVRLMDTTLQEGRSNIINAGLKKDGSLRSDSAAVGEKEFDLLTKHVRRTFQEAGEQITDGRVSIEPYKMKNKTPCTYCAFKSVCQFDESLEENEYRPLKAEKDKTILEWIKKEADGNEHS
binding result [1]: binds

B2: oligo 023 (Chi, 6 T spacer) (structured_DNA)
DNA: TTTTTTTCTAATGCGAGCACTGCTATTCCCTAGCAGTGCTCGCATTAGATTTTGTTTTTTAGCGG
binding result [2]: binds

B3: oligo 027 (Chi, 7 T spacer, TTTT 3' extension) (structured_DNA)
DNA: TTTTTTTCTAATGCGAGCACTGCTATTCCCTAGCAGTGCTCGCATTAGATTTTGTTTTTTTAGCGGTTTT
binding result [3]: binds
